Measurements published in patent publication US20240174767A1.

Target: β2AR wild type (wt) receptor (human) (UniProt P07550)
Test: cell-based or functional assay

With MbNb80^cHopQ (designed binder) the apparent potency shift: IC50 of epinephrine for β2AR-wt alone divided by the IC50^high of epinephrine for β2AR-wt in the presence of MbNb80^cHopQ ([3H]-DHA competition) was 2000 fold and the apparent potency shift: IC50 of isoprotenerol for β2AR-wt divided by the IC50^high of isoprotenerol for β2AR-wt in the presence of MbNb80^cHopQ ([3H]-DHA competition) was 2000 fold.
